Laboratory results taken from patent publication US20250034594A1, “RNA-GUIDED GENOME RECOMBINEERING AT KILOBASE SCALE” (THE BOARD OF TRUSTEES OF THE LELAND STANFORD JUNIOR …, priority 2021, published 2025).

Key:
Format in all cases: cell-based
[1] = system: endogenous genome targets (ACTB, HSP90AA1); assay: Arrayed SSAP library screening, mKate knock-in assay (editing efficiency); conditions: average of HSP90 and ACTB, 3 days after transfection; for Editing Efficiency (Normalized, Average, two targets): fold over negative control (Flag_HA); for Editing Efficiency (Absolute, Average, two targets): percent of mKate knock-in
Protocol: Arrayed SSAP library screening on endogenous genome targets (ACTB. HSP90AA1) using mKate knock-in assay.
SSAP-encoding plasmids were purified and quantified.
(§1) Each SSAP encoding plasmid was tested in duplicate, including a negative control (same plasmid encoding Flag_HA which is not expected to promote gene editing). Transfections were in 96-well plates and transfection efficiency was estimated to be 50%.
(§2) Three days after transfection, mKate positive cells and cell viability were quantified across all replicates, along with positive (original RecT SSAP) and negative (Flag-HA control protein) controls. […] At the same time, the cell viability was measured by live cell counts via flow cytometry, to help quantify the fitness effect of SSAP on mammalian cells.
(§3) SSAP proteins are identified by Uniparc deposit number and SEQ ID NO. Alignment numbers correspond to SSAPs in FIGS. 58, 59, and 60.

mammalian cells = assay: Arrayed SSAP library screening, cell viability by live cell counts via flow cytometry
Protocol: as §1, §2, §3

gene editing with Cas9 = assay: Screen of 322 new SSAP proteins, gene editing activity with Cas9 (Table 5); design: Cas9 with SSAP activity: scale not given here
Summary of the method: (§4)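 The 322 SSAP proteins were found in sequence data and then synthesized. Each was screened for gene editing activity when paired with Cas9 and with dCas9.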

gene editing with dCas9 = assay: Screen of 322 new SSAP proteins, gene editing activity with dCas9 (Table 5); design: dCas9 with SSAP activity: scale not given here
Summary of the method: as §4

[2] = system: gene editing with Cas9 and dCas9; assay: Screen of 322 new SSAP proteins, activity across all experiments (Cas9 and dCas9, Table 5); design: scale not given here
Summary of the method: as §4

B1: SSAP_6: SEQ ID NO: 175 (protein)
chain: STALATLAGKLAERVGMDSVDPQELITTLRQTAFKGDASDAQFIALLIVANQYGLNPWTKEIYAFPDKQNGIVPVVGVDGWSRIINENQQFDGMDFEQDNESCTCRIYRKDRNHPICVTEWMDECRREPFKTREGREITGPWQSHPKRMLRHKAMIQCARLAFGFAGIYDKDEAERIVENTAYTAERQPERDITPVNDETMQEINTLLIALDKTWDDDLLPLCSQIFRRDIRASSELTQAEAVKALGFLKQKATEQKVAA
[1]
  Editing Efficiency (Normalized, Average, two targets): 4.879
  Editing Efficiency (Absolute, Average, two targets): 12.075
Mammalian cells
  Cell Viability (Average, two targets): 1.282
Gene editing with Cas9
  Cas9 with SSAP activity: −8.056
Gene editing with dCas9
  dCas9 with SSAP activity: −5.703
  dCas9 with SSAP activity (normalized): −1.399
[2]
  Activity across all experiments: −6.879

B2: SSAP_193: SEQ ID NO: 362; Mesotoga sp. TolDC (protein, listed as Mesotoga sp.)
chain: KASEIASMVKKEDERRNHKPDPLAGIVKNLTSIKGEIANALPDAGITPERMIRIVVTLLRQNKSLAEAAMQNPASLLGAVMMAAQLGLDPTNGLDQCALVPRKGKVCFDIMYEGLVELGYRSDRMESIVARTVYEKDTFSLKYGLNEELVHIPYLDGDPGESKGYYMVGKLKGGGNIIVYMTKEQVHKIRDRYSVAYKAGLSGSRKDSPWFTSEDRMGEKTVVKAGFRWIPKSPIIRTALALDETAREASRLPMRN
[1]
  Editing Efficiency (Normalized, Average, two targets): 5.034
  Editing Efficiency (Absolute, Average, two targets): 12.465
Mammalian cells
  Cell Viability (Average, two targets): 1.147
Gene editing with Cas9
  Cas9 with SSAP activity: −0.442
  Cas9 with SSAP activity (normalized): −0.140
Gene editing with dCas9
  dCas9 with SSAP activity: −5.951
  dCas9 with SSAP activity (normalized): −1.083
[2]
  Activity across all experiments: −3.196

B3: SSAP_172: SEQ ID NO: 341; Staphylococcus pettenkoferi (protein, listed as Staphylococcus pettenkoferi)
chain: ATQKDFKNQISQKETQQKQEVQKKKKGPRQQVSDLLDRMAPEIEKALPNHLSADRMARVAMTAVSSNPKLLECDPKSFIGAVMQSAQLGLEPNTALGEAYLVPYAGKVNFQLSYLGLINLATRSGQYKAIYAHEVYAEDEFRYQYGLHKDLIHKPVDNPKGKPIGYYAVYHLLNGGYDFVYWTTERIQKHAKKYSFAVQKGYQSPWNDEFDAMAKKTVLKDLLKYAPKSIEMNNAVRSDDKQSELSDEGVVIDVTNYDEENGEEK
[1]
  Editing Efficiency (Normalized, Average, two targets): 4.239
  Editing Efficiency (Absolute, Average, two targets): 10.4925
Mammalian cells
  Cell Viability (Average, two targets): 0.9046
Gene editing with Cas9
  Cas9 with SSAP activity: −2.356
  Cas9 with SSAP activity (normalized): −0.702
Gene editing with dCas9
  dCas9 with SSAP activity: −5.287
  dCas9 with SSAP activity (normalized): −0.724
[2]
  Activity across all experiments: −3.822

B4: SSAP_20: SEQ ID NO: 189; CK3_26380 butyrate-producing bacterium SS3/4 (protein)
chain: ENATAVQQAESQGTQDFSAPVKHNTDFSLGIFGSSDNFLMATQMAKAFASSTIVPKEYQGNFANGLVAMDIANRLKTSPFMVMQNLDVIQGRPAWRATFLIAMINRSKKYDIELQFEEKRDKNGKPYSCTCWTTKDGRKVTGIEVTMDMAEAEGWTKKNGSKWITMPQVMLRYRAASFFSRMNCPELSNGLYTTDEVYEMADSEYKVYNLEDEVKRDLAQNANKEEFVAPPNETAPESESKGSEPLDPAVENQKSGDTPDWMKPETM
modifications: butyrate-producing bacterium SS3/4
[1]
  Editing Efficiency (Normalized, Average, two targets): 5.982
  Editing Efficiency (Absolute, Average, two targets): 14.85
Mammalian cells
  Cell Viability (Average, two targets): 1.174
Gene editing with Cas9
  Cas9 with SSAP activity: −0.183
  Cas9 with SSAP activity (normalized): −0.399
Gene editing with dCas9
  dCas9 with SSAP activity: −4.179
  dCas9 with SSAP activity (normalized): −0.615
[2]
  Activity across all experiments: −2.181

B5: SSAP_235: SEQ ID NO: 404; Streptomyces sp. adm13(2018) (protein, listed as Streptomyces sp.)
chain: SQIGNEIARQSHSPAAIIEQHKADLAVVAASHVRVDTFARLAVGVLRQNEKLAAAAANNPGSLMSALMTAARLGLEPGTEQFYLRPIKRKGQLEVQGIVGYQGIVELIYNAGAAQSVVVEVVRARDEFAWTPGALDEHRPPRWPGAMKQPHHKVDWFGDRGPLVGAYAYAVMQGGAISKVVVLNRDHIARAKAKSDGADTDYSPWRTDEEAMWLKTAARRLGKWVPTSAEKRTGVIERLDTPPAPLNEIDPDEDDEPIDGELVD
[1]
  Editing Efficiency (Normalized, Average, two targets): 4.251
  Editing Efficiency (Absolute, Average, two targets): 10.53
Mammalian cells
  Cell Viability (Average, two targets): 0.8847
Gene editing with Cas9
  Cas9 with SSAP activity: −5.016
  Cas9 with SSAP activity (normalized): −0.970
Gene editing with dCas9
  dCas9 with SSAP activity: −5.457
  dCas9 with SSAP activity (normalized): −1.152
[2]
  Activity across all experiments: −5.237

B6: SSAP_211: SEQ ID NO: 380; unclassified Streptomyces (protein, listed as Streptomyces sp.)
chain: SQIGNAIATRDEGPAAQIEVYRDEYAALVPSHVNADQWVRLAVGAIRGNDDLLKAAGNDIGLFLREMKTAARLGLEPGTEQFYLTPRKSKAHGGRPVIKGIVGYQGIVELIYRAGAASTVIVEAVRQNDVFRYVPGRDDRPVHEIDWFGQDRGPLVGVYAYAVMKDGAVSKVVVLNKARVMELKAKSDSKNSPYSPWNTNEEAMWLKSGVRQLAKWVPTSAEFRRDQLLAHTDTADGVIASVSAPPLPPQSAALEDLDPDDEGPIDGELLDD
[1]
  Editing Efficiency (Normalized, Average, two targets): 5.517
  Editing Efficiency (Absolute, Average, two targets): 13.65
Mammalian cells
  Cell Viability (Average, two targets): 0.3563
Gene editing with Cas9
  Cas9 with SSAP activity: 2.771
  Cas9 with SSAP activity (normalized): 4.679
Gene editing with dCas9
  dCas9 with SSAP activity: −5.365
  dCas9 with SSAP activity (normalized): −0.904
[2]
  Activity across all experiments: −1.297

B7: SSAP_16: SEQ ID NO: 185 (protein)
chain: MAKENYSDPNGKLLNSITTFEVNGEEVKLSGNIIRDYLVSGNAEVTDQEIIMFLQLCKYQKLNPFLNEAYLVKFKNTKGPDKPAQIIVSKEAFMKRAETHEQYDGFEAGVIVERGGEIIELEGAVSLASDKLLGGWAKVFRKDRNRPVSVRISEKEFNKRQSTWNTMPLTMMRKTAVVNAMREAFPDNLGAMYTEEEQGSLQNTETSVQQEIKQNANAEVLDIPSQQNEVPDFKEVREPEHVEMPPIYGEQQSTPPARPY
[1]
  Editing Efficiency (Normalized, Average, two targets): 8.461
  Editing Efficiency (Absolute, Average, two targets): 20.95
Mammalian cells
  Cell Viability (Average, two targets): 1.146
Gene editing with Cas9
  Cas9 with SSAP activity: −0.858
  Cas9 with SSAP activity (normalized): −0.452
Gene editing with dCas9
  dCas9 with SSAP activity: −5.666
  dCas9 with SSAP activity (normalized): −1.047
[2]
  Activity across all experiments: −3.262
